Results published in patent US5945329A, “Customized proteases” (Carlsberg A/S, priority 1997, dated 1999).
Positions count from the first letter of the chain named. In names and notes the source's numbering stands. Peptide text beside a SMILES is read from it. * marks the point of attachment. Bz = O=C(c1ccccc1)*

B1: carboxypeptidase Y (CPD-Y) variant N51Q (Asn51 replaced with glutamine) (Saccharomyces cerevisiae S288C; N162Q) (protein)
chain: KIKDPKILGIDPNVTQYTGYLDVEDEDKHFFFWTFESRNDPAKDPVILWLQGGPGCSSLTGLFFELGPSSIGPDLKPIGNPYSWNSNATVIFLDQPVNVGFSYSGSSGVSNTVAAGKDVYNFLELFFDQFPEYVNKGQDFHIAGESYAGHYIPVFASEILSHKDRNFNLTSVLIGNGLTDPLTQYNYYEPMACGEGGEPSVLPSEECSAMEDSLERCLGLIESCYDSQSVWSCVPATIYCNNAQLAPYQRTGRNVYDIRKDCEGGNLCYPTLQDIDDYLNQDYVKEAVGAEVDHYESCNFDINRNFLFAGDWMKPYHTAVTDLLNQDLPILVYAGDKDFICNWLGNKAWTDVLPWKYDEEFASQKVRNWTASITDEVAGEVKSYKHFTYLRVFNGGHMVPFDVPENALSMVNEWIHGGFSL
notes: made in house; host or cells: S. cerevisiae W2579 (secreted)
B2: carboxypeptidase Y (CPD-Y) variant N51S (Asn51 replaced with serine) (Saccharomyces cerevisiae S288C; N162S) (protein)
chain: B1 chain with Q51S
notes: as for B1

How the values were obtained:
[1] = molecular target: T1, yeast carboxypeptidase Y (CPD-Y), wild type (SEQ ID NO:32) (Saccharomyces cerevisiae, UniProt P00729); assay: Aminolysis of ester/peptide substrates; KN(app) of nucleophile; assay type: biochemical; settings: for KN(app): Table III (unit as in Tables I, II), ester substrate; for KN,app (H-Gly-NH2 as nucleophile): substance of the line is the substrate (leaving group phenylalanine or L-β-phenyllactic acid), enzyme not named, taken as CPD-Y
T1 construct: purchased Carlbiotech, Copenhagen, Denmark
T1 sequence (P00729 112-532): B1 chain with Q51N
Procedure: (§1) Aminolysis reactions were carried out in the following way. The nucleophile was dissolved in 50 mM Hepes, 5 mM EDTA and pH was adjusted to 7.5. Five (5) μl of substrate (8 mM FA-Ala-OBzl in methanol) was added to 190 μl nucleophile solution followed by 5 μl enzyme, resulting in a substrate concentration of 0.2 mM. For reactions carried out at pH 9.5, Hepes was replaced with Ches. During the reaction, 20 μl aliquots were removed from the reaction mixture and added to 50 μl 1% trifluoroacetic acid to quench the reaction. The reactant composition was determined by HPLC using a Waters HPLC equipped with a C-18 Waters Novapac 4μ reverse phase column and various gradients of acetonitrile in 0.1% trifluoroacetic acid. The separation was monitored at 302 nm allowing the direct quantification of the products from the integrated peak areas. The composition of the reaction mixture was determined at least twice during the reaction, the first time when 20-50% (preferably 35%) of the ester substrate had been consumed in the reaction and the second time when 50-90% (preferably 80%) of the substrate had been consumed. The products were collected and identified by amino acid analysis after acid hydrolysis using a Pharmacia Alpha Plus analyzer.
(§2) Further identification was obtained by co-chromatography of authentic standard compounds. The fraction of aminolysis (fa) was expressed as the ratio between the formed aminolysis product and the sum of all products being formed, i.e., unconsumed substrate was disregarded in the calculations. The KN(app), representing the nucleophile concentration at which fa is half the maximum value (a measure for the dissociation constant of the nucleophile), and famax (the highest possible fa obtained at saturation of the enzyme with nucleophile) were determined by fitting the values of fa obtained at a minimum of seven concentrations of nucleophile to a saturation. The value of fa obtained at the highest possible nucleophile concentration is designated fasat.
(§3) Aminolysis reactions were carried out in the following way. The nucleophile was dissolved in 50 mM HEPES, 5 mM EDTA and pH was adjusted to 7.5, 5 μl substrate (8 mM FA-Ala-OBzl or FA-Ala-Xaa-OH in methanol) was added to 190 μl nucleophile solution followed by 5 μl enzyme diluted in buffer to the appropriate concentration, resulting in a substrate concentration of 0.2 mM. During the reaction, 20 μl aliquots were removed from the reaction mixture and added to 50 μl 1% trifluoroacetic acid to quench the reaction. The reactant composition was determined by HPLC using a Waters HPLC equipped with a C-18 Waters Novapac 4μ reverse phase column and various gradients of acetonitrile in 0.1% trifluoroacetic acid. The separation was monitored at 302 nm allowing the direct quantification of the products from the integrated peak areas. The products were collected and identified by amino acid analysis after acid hydrolysis (Pharmacia Alpha Plus analyzer) and by co-chromatography of authentic standards. The fraction of aminolysis (fa) was expressed as the ratio between the formed aminolysis product and the sum of all products being formed, i.e. unconsumed substrate was disregarded in the calculations. The KN,app (a measure for the dissociation constant of the nucleophile) and famax (the highest possible fa obtained at saturation with nucleophile were determined by fitting the obtained fa values to the equation fa=famax /(1+KN,app /N).

[2] = molecular target: T2, carboxypeptidase Y (CPD-Y) variant N51Q (Asn51 replaced with glutamine) (Saccharomyces cerevisiae, UniProt P00729, N162Q); assay: Aminolysis; KN(app) of nucleophile; assay type: biochemical, yeast; settings: Table V; amino acid nucleophile, FA-Ala-OBzl as substrate, pH 7.5
T2 construct: made in house; host or cells: S. cerevisiae W2579 (secreted)
T2 sequence (P00729 112-532 N162Q): B1 chain
Procedure: as §1, §2, §3

[3] = substrate: CC(C)[C@H](NC(=O)[C@H](Cc1ccccc1)NC(=O)C=Cc1ccco1)C(=O)O; assay: Hydrolysis of FA-Phe-Val-OH; assay type: biochemical, yeast; settings: other: hydrolysis of FA-Phe-Val-OH

Row | Molecule | estimated CPD-Y activity relative to wild type transformants (fold of wild type) (CBZ-Glu-Leu-OH) | estimated CPD-Y activity relative to wild type transformants (fold of wild type) (CBZ-Gly-Leu-OH) | estimated CPD-Y activity relative to wild type transformants (fold of wild type) (CBZ-His-Leu-OH) | estimated CPD-Y activity relative to wild type transformants (fold of wild type) (CBZ-Lys-Leu-OH) | estimated CPD-Y activity relative to wild type transformants (fold of wild type) (CBZ-Pro-Leu-OH) | estimated CPD-Y activity relative to wild type transformants (fold of wild type) (CBZ-Ser-Leu-OH) | estimated CPD-Y activity relative to wild type transformants (fold of wild type) (CBZ-Trp-Leu-OH) | estimated CPD-Y activity relative to wild type transformants (fold of wild type) (CBZ-Phe-Leu-OH) | KN(app) ([1]; amino acid nucleophile) [mM] | also measured
1 | carboxypeptidase Y mutant 178Cys (enzyme) | 1.1 | 0.9 | 1.7 | 6.9 | 0.3 | 0.5 | 1 | – | – | –
2 | carboxypeptidase Y mutant 178His/215Thr/216Phe (enzyme) | 1.2 | 0.8 | 1.1 | 3.1 | 1.2 | 1 | 1.7 | 0.9 | – | –
3 | N[C@@H](Cc1ccccc1)C(=O)O [H--Phe--OH, H-Phe-OH] | – | – | – | – | – | – | – | – | 9.5 ± 1 | Kn,app [2]: 29 ± 1 mM
4 | carboxypeptidase Y mutant 178Asn/215Ala/216Gly (enzyme) | 2 | 0.7 | 1.3 | 4.4 | 0.9 | 0.7 | 2 | 2.8 | – | –
5 | NCCCC[C@H](N)C(=O)O [H--Lys--OH, H-Lys-OH] | – | – | – | – | – | – | – | – | 190 ± 30 | –
6 | carboxypeptidase Y mutant 178Ala/215Ser/216Arg (enzyme) | 1.4 | 1.1 | 1 | 4 | 0.6 | 1.3 | 1.1 | 1.2 | – | –
7 | carboxypeptidase Y mutant 178Gly/340Ile/341Cys (enzyme) | 0.8 | 0.3 | 0.8 | 4.6 | 0.5 | 0.3 | 0.5 | 0.8 | – | –
8 | C[C@H](N)C(=O)O [H--Ala--OH, H-Ala-OH] | – | – | – | – | – | – | – | – | 83 ± 7 | Kn,app ([1]; Table V, amino acid nucleophile, FA-Ala-OBzl as substrate, pH 7.5): 83 ± 7 mM; Kn,app [2]: 250 ± 15 mM
9 | N[C@@H](Cc1c[nH]cn1)C(=O)O [H--His--OH, H-His-OH] | – | – | – | – | – | – | – | – | 87 ± 9 | –
10 | N[C@@H](CO)C(=O)O [H--Ser--OH, H-Ser-OH] | – | – | – | – | – | – | – | – | 310 ± 20 | –
11 | carboxypeptidase Y mutant 178Cys/215Thr/216Trp (enzyme) | 1.1 | 0.8 | 1.1 | 5.3 | 1.6 | 0.4 | 0.9 | 1 | – | –
12 | O=C(CNC(=O)c1ccccc1)N[C@@H](Cc1ccccc1)C(=O)O [Hippuryl-L-Phe-OH] (Bz-Gly-Phe-OH) | – | – | – | – | – | – | – | – | – | KN,app (H-Gly-NH2 as nucleophile) [1]: 0.63±0.06
13 | NC(=O)CC[C@H](N)C(=O)O [H--Gln--OH, H-Gln-OH] | – | – | – | – | – | – | – | – | 150 ± 8 | –
14 | NCC(=O)O [H--Gly--OH, H-Gly-OH] | – | – | – | – | – | – | – | – | 1500 ± 50 | –
15 | O=C(CNC(=O)c1ccccc1)O[C@@H](Cc1ccccc1)C(=O)O [Hippuryl-L-β-Phenyllactic acid] | – | – | – | – | – | – | – | – | – | KN,app (H-Gly-NH2 as nucleophile) [1]: 0.47±0.05
16 | carboxypeptidase Y mutant 178His/215Pro/216Thr (enzyme) | 1 | 0.8 | 1.1 | 3.6 | 1.2 | 1.1 | 1.5 | 0.9 | – | –
17 | B1 | – | – | – | – | – | – | – | – | – | Km [3]: 85 µM; kcat [3]: 25 s⁻¹; kcat/Km [3]: 300000 M⁻¹ s⁻¹
18 | B2 | – | – | – | – | – | – | – | – | – | Km [3]: 170 µM; kcat [3]: 135 s⁻¹; kcat/Km [3]: 800000 M⁻¹ s⁻¹
